From publication PMC4153296, “Mutant Taq DNA polymerases with improved elongation ability as a useful reagent for genetic engineering”

Assays:
[1] = biological target: chimeric Taq 7-3 (Thermus aquaticus / environmental DNA chimera) (UniProt P19821); test: EMSA; conditions: EMSA: 3 nM DNA, 20 mM Tris-HCl pH 8.8, 10 mM NaCl, 5 mM MgCl2, 14 mM 2-mercaptoethanol, 0.1 mg/ml BSA, 5% glycerol, 40 C, 5 min; 1% agarose gel
[2] = biological target: chimeric Taq 1-2 (Thermus aquaticus / environmental DNA chimera) (UniProt P19821); test: EMSA; conditions: EMSA: 3 nM DNA, 20 mM Tris-HCl pH 8.8, 10 mM NaCl, 5 mM MgCl2, 14 mM 2-mercaptoethanol, 0.1 mg/ml BSA, 5% glycerol, 40 C, 5 min; 1% agarose gel
[3] = biological target: chimeric Taq 1-1 (Thermus aquaticus / environmental DNA chimera) (UniProt P19821); test: EMSA; conditions: EMSA: 3 nM DNA, 20 mM Tris-HCl pH 8.8, 10 mM NaCl, 5 mM MgCl2, 14 mM 2-mercaptoethanol, 0.1 mg/ml BSA, 5% glycerol, 40 C, 5 min; 1% agarose gel
[4] = biological target: chimeric Taq 7-2 (Thermus aquaticus / environmental DNA chimera) (UniProt P19821); test: EMSA; conditions: EMSA: 3 nM DNA, 20 mM Tris-HCl pH 8.8, 10 mM NaCl, 5 mM MgCl2, 14 mM 2-mercaptoethanol, 0.1 mg/ml BSA, 5% glycerol, 40 C, 5 min; 1% agarose gel
[5] = biological target: chimeric Taq 8-1 (Thermus aquaticus / environmental DNA chimera) (UniProt P19821); test: EMSA; conditions: EMSA: 3 nM DNA, 20 mM Tris-HCl pH 8.8, 10 mM NaCl, 5 mM MgCl2, 14 mM 2-mercaptoethanol, 0.1 mg/ml BSA, 5% glycerol, 40 C, 5 min; 1% agarose gel
[6] = biological target: chimeric Taq 7-1 (Thermus aquaticus / environmental DNA chimera) (UniProt P19821); test: EMSA; conditions: EMSA: 3 nM DNA, 20 mM Tris-HCl pH 8.8, 10 mM NaCl, 5 mM MgCl2, 14 mM 2-mercaptoethanol, 0.1 mg/ml BSA, 5% glycerol, 40 C, 5 min; 1% agarose gel
[7] = biological target: chimeric Taq 30-1 (Thermus aquaticus / environmental DNA chimera) (UniProt P19821); test: EMSA; conditions: EMSA: 3 nM DNA, 20 mM Tris-HCl pH 8.8, 10 mM NaCl, 5 mM MgCl2, 14 mM 2-mercaptoethanol, 0.1 mg/ml BSA, 5% glycerol, 40 C, 5 min; 1% agarose gel
[8] = biological target: chimeric Taq 29-1 (Thermus aquaticus / environmental DNA chimera) (UniProt P19821); test: EMSA; conditions: EMSA: 3 nM DNA, 20 mM Tris-HCl pH 8.8, 10 mM NaCl, 5 mM MgCl2, 14 mM 2-mercaptoethanol, 0.1 mg/ml BSA, 5% glycerol, 40 C, 5 min; 1% agarose gel
[9] = biological target: chimeric Taq 8-2 (Thermus aquaticus / environmental DNA chimera) (UniProt P19821); test: EMSA; conditions: EMSA: 3 nM DNA, 20 mM Tris-HCl pH 8.8, 10 mM NaCl, 5 mM MgCl2, 14 mM 2-mercaptoethanol, 0.1 mg/ml BSA, 5% glycerol, 40 C, 5 min; 1% agarose gel
[10] = biological target: chimeric Taq 4-2 (Thermus aquaticus / environmental DNA chimera) (UniProt P19821); test: EMSA; conditions: EMSA: 3 nM DNA, 20 mM Tris-HCl pH 8.8, 10 mM NaCl, 5 mM MgCl2, 14 mM 2-mercaptoethanol, 0.1 mg/ml BSA, 5% glycerol, 40 C, 5 min; 1% agarose gel
[11] = biological target: chimeric Taq 4-1 (Thermus aquaticus / environmental DNA chimera) (UniProt P19821); test: EMSA; conditions: EMSA: 3 nM DNA, 20 mM Tris-HCl pH 8.8, 10 mM NaCl, 5 mM MgCl2, 14 mM 2-mercaptoethanol, 0.1 mg/ml BSA, 5% glycerol, 40 C, 5 min; 1% agarose gel
[12] = biological target: chimeric Taq 12-1 (Thermus aquaticus / environmental DNA chimera) (UniProt P19821); test: EMSA; conditions: EMSA: 3 nM DNA, 20 mM Tris-HCl pH 8.8, 10 mM NaCl, 5 mM MgCl2, 14 mM 2-mercaptoethanol, 0.1 mg/ml BSA, 5% glycerol, 40 C, 5 min; 1% agarose gel
[13] = biological target: chimeric Taq 10-1 (Thermus aquaticus / environmental DNA chimera) (UniProt P19821); test: EMSA; conditions: EMSA: 3 nM DNA, 20 mM Tris-HCl pH 8.8, 10 mM NaCl, 5 mM MgCl2, 14 mM 2-mercaptoethanol, 0.1 mg/ml BSA, 5% glycerol, 40 C, 5 min; 1% agarose gel
[14] = biological target: TaqHA (Thermus aquaticus, UniProt P19821 1-832, E742H); test: EMSA; 5 mM Mg2+; apparent Kd; EMSA: 3 nM DNA, 20 mM Tris-HCl pH 8.8, 10 mM NaCl, 5 mM MgCl2, 14 mM 2-mercaptoethanol, 0.1 mg/ml BSA, 5% glycerol, 40 C, 5 min; 1% agarose gel; conditions: protein: recombinant; label: 32P on 27mer; primer-template; 27 bp duplex, 5' overhang 22 nt on the 49mer template
[15] = biological target: TaqHK (Thermus aquaticus, UniProt P19821 1-832, E742H;A743K); test: as above; conditions: protein: recombinant; label: 32P on 27mer; primer-template; 27 bp duplex, 5' overhang 22 nt on the 49mer template
[16] = biological target: TaqHH (Thermus aquaticus, UniProt P19821 1-832, E742H;A743H); test: as above; conditions: protein: recombinant; label: 32P on 27mer; primer-template; 27 bp duplex, 5' overhang 22 nt on the 49mer template
[17] = biological target: TaqAA (Thermus aquaticus, UniProt P19821 1-832, E742A); test: as above; conditions: protein: recombinant; label: 32P on 27mer; primer-template; 27 bp duplex, 5' overhang 22 nt on the 49mer template
[18] = biological target: Taq DNA polymerase WT (TaqEA) (Thermus aquaticus, UniProt P19821 1-832); test: as above; conditions: protein: recombinant; label: 32P on 27mer; primer-template; 27 bp duplex, 5' overhang 22 nt on the 49mer template
[19] = biological target: TaqKR (Thermus aquaticus, UniProt P19821 1-832, E742K;A743R); test: as above; conditions: protein: recombinant; label: 32P on 27mer; primer-template; 27 bp duplex, 5' overhang 22 nt on the 49mer template
[20] = biological target: TaqER (Thermus aquaticus, UniProt P19821 1-832, A743R); test: as above; conditions: protein: recombinant; label: 32P on 27mer; primer-template; 27 bp duplex, 5' overhang 22 nt on the 49mer template
[21] = biological target: TaqRA (Thermus aquaticus, UniProt P19821 1-832, E742R); test: as above; conditions: protein: recombinant; label: 32P on 27mer; primer-template; 27 bp duplex, 5' overhang 22 nt on the 49mer template
[22] = biological target: TaqEH (Thermus aquaticus, UniProt P19821 1-832, A743H); test: as above; conditions: protein: recombinant; label: 32P on 27mer; primer-template; 27 bp duplex, 5' overhang 22 nt on the 49mer template
[23] = biological target: TaqRR (Thermus aquaticus, UniProt P19821 1-832, E742R;A743R); test: as above; conditions: protein: recombinant; label: 32P on 27mer; primer-template; 27 bp duplex, 5' overhang 22 nt on the 49mer template
[24] = biological target: TaqKK (Thermus aquaticus, UniProt P19821 1-832, E742K;A743K); test: as above; conditions: protein: recombinant; label: 32P on 27mer; primer-template; 27 bp duplex, 5' overhang 22 nt on the 49mer template
[25] = biological target: TaqRK (Thermus aquaticus, UniProt P19821 1-832, E742R;A743K); test: as above; conditions: protein: recombinant; label: 32P on 27mer; primer-template; 27 bp duplex, 5' overhang 22 nt on the 49mer template
[26] = biological target: TaqQY (Thermus aquaticus, UniProt P19821 1-832, E742Q;A743Y); test: as above; conditions: protein: recombinant; label: 32P on 27mer; primer-template; 27 bp duplex, 5' overhang 22 nt on the 49mer template
[27] = biological target: TaqAR (Thermus aquaticus, UniProt P19821 1-832, E742A;A743R); test: as above; conditions: protein: recombinant; label: 32P on 27mer; primer-template; 27 bp duplex, 5' overhang 22 nt on the 49mer template
[28] = biological target: TaqAH (Thermus aquaticus, UniProt P19821 1-832, E742A;A743H); test: as above; conditions: protein: recombinant; label: 32P on 27mer; primer-template; 27 bp duplex, 5' overhang 22 nt on the 49mer template
Chain of TaqAH (P19821 whole entry E742A/A743H): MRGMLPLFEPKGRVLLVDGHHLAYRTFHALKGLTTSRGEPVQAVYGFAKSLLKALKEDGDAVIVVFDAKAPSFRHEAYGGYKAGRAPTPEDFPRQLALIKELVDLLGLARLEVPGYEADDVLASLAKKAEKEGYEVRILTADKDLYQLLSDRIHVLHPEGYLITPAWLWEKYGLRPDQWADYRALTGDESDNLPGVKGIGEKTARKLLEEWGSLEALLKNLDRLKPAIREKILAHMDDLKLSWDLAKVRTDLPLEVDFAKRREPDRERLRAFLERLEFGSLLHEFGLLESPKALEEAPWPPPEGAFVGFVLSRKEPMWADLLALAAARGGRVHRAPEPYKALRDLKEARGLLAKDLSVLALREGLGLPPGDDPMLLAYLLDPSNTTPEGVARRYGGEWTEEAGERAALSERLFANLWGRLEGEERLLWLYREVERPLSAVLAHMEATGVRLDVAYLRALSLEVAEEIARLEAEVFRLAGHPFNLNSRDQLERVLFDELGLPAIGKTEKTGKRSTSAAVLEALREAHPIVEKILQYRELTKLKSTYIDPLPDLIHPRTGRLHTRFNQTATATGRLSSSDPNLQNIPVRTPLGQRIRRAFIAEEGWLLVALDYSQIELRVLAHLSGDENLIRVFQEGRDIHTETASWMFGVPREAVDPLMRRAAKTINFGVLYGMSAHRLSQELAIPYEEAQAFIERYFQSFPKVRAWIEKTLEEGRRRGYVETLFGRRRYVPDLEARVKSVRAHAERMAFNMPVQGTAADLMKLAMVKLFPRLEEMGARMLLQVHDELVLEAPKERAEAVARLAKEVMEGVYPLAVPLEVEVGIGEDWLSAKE

Chain of TaqAA (P19821 whole entry E742A): as the sequence (P19821 whole entry E742A/A743H) above, with H743A counted along it
Chain of TaqHK (P19821 whole entry E742H/A743K): as the sequence (P19821 whole entry E742A/A743H) above, with A742H, H743K counted along it
Chain of TaqHH (P19821 whole entry E742H/A743H): as the sequence (P19821 whole entry E742A/A743H) above, with A742H counted along it
Chain of TaqRR (P19821 whole entry E742R/A743R): as the sequence (P19821 whole entry E742A/A743H) above, with A742R, H743R counted along it
Chain of TaqEH (P19821 whole entry A743H): as the sequence (P19821 whole entry E742A/A743H) above, with A742E counted along it
Chain of TaqRA (P19821 whole entry E742R): as the sequence (P19821 whole entry E742A/A743H) above, with A742R, H743A counted along it
Chain of TaqKR (P19821 whole entry E742K/A743R): as the sequence (P19821 whole entry E742A/A743H) above, with A742K, H743R counted along it
Chain of chimeric Taq 4-2 (Thermus aquaticus / environmental DNA chimera) (P19821 whole entry, change not shown): as the sequence (P19821 whole entry E742A/A743H) above, with A742E, H743A counted along it
Chain of Taq DNA polymerase WT (TaqEA) (P19821 whole entry): as the sequence (P19821 whole entry E742A/A743H) above, with A742E, H743A counted along it
Chain of chimeric Taq 12-1 (Thermus aquaticus / environmental DNA chimera) (P19821 whole entry, change not shown): as the sequence (P19821 whole entry E742A/A743H) above, with A742E, H743A counted along it
Chain of chimeric Taq 30-1 (Thermus aquaticus / environmental DNA chimera) (P19821 whole entry, change not shown): as the sequence (P19821 whole entry E742A/A743H) above, with A742E, H743A counted along it
Chain of chimeric Taq 8-1 (Thermus aquaticus / environmental DNA chimera) (P19821 whole entry, change not shown): as the sequence (P19821 whole entry E742A/A743H) above, with A742E, H743A counted along it
Chain of chimeric Taq 7-3 (Thermus aquaticus / environmental DNA chimera) (P19821 whole entry, change not shown): as the sequence (P19821 whole entry E742A/A743H) above, with A742E, H743A counted along it
Chain of chimeric Taq 4-1 (Thermus aquaticus / environmental DNA chimera) (P19821 whole entry, change not shown): as the sequence (P19821 whole entry E742A/A743H) above, with A742E, H743A counted along it
Chain of chimeric Taq 1-2 (Thermus aquaticus / environmental DNA chimera) (P19821 whole entry, change not shown): as the sequence (P19821 whole entry E742A/A743H) above, with A742E, H743A counted along it
Chain of chimeric Taq 7-1 (Thermus aquaticus / environmental DNA chimera) (P19821 whole entry, change not shown): as the sequence (P19821 whole entry E742A/A743H) above, with A742E, H743A counted along it
Chain of chimeric Taq 29-1 (Thermus aquaticus / environmental DNA chimera) (P19821 whole entry, change not shown): as the sequence (P19821 whole entry E742A/A743H) above, with A742E, H743A counted along it
Chain of chimeric Taq 10-1 (Thermus aquaticus / environmental DNA chimera) (P19821 whole entry, stated change not applied): as the sequence (P19821 whole entry E742A/A743H) above, with A742E, H743A counted along it
Chain of chimeric Taq 1-1 (Thermus aquaticus / environmental DNA chimera) (P19821 whole entry, change not shown): as the sequence (P19821 whole entry E742A/A743H) above, with A742E, H743A counted along it
Chain of chimeric Taq 8-2 (Thermus aquaticus / environmental DNA chimera) (P19821 whole entry, change not shown): as the sequence (P19821 whole entry E742A/A743H) above, with A742E, H743A counted along it
Chain of chimeric Taq 7-2 (Thermus aquaticus / environmental DNA chimera) (P19821 whole entry, change not shown): as the sequence (P19821 whole entry E742A/A743H) above, with A742E, H743A counted along it
Chain of TaqAR (P19821 whole entry E742A/A743R): as the sequence (P19821 whole entry E742A/A743H) above, with H743R counted along it
Chain of TaqQY (P19821 whole entry E742Q/A743Y): as the sequence (P19821 whole entry E742A/A743H) above, with A742Q, H743Y counted along it
Chain of TaqHA (P19821 whole entry E742H): as the sequence (P19821 whole entry E742A/A743H) above, with A742H, H743A counted along it
Chain of TaqKK (P19821 whole entry E742K/A743K): as the sequence (P19821 whole entry E742A/A743H) above, with A742K, H743K counted along it
Chain of TaqER (P19821 whole entry A743R): as the sequence (P19821 whole entry E742A/A743H) above, with A742E, H743R counted along it
Chain of TaqRK (P19821 whole entry E742R/A743K): as the sequence (P19821 whole entry E742A/A743H) above, with A742R, H743K counted along it

“AGCTATGACCATGATTACGAATTGCTT / AGCTACCATGCCTGCACGAATTAAGCAATTCGTAATCATGGTCATAGCT [primed DNA (27mer/49mer)]” was tested. Which Kd [1] did it give?
The Kd was 4 nM.

What about the Kd [2] of the same molecule?
The Kd was 5 nM.

And the Kd [3]?
Its Kd is 6 nM.

And the Kd [4]?
Its Kd is 5 nM.

What about the Kd [5] of the same molecule?
Its Kd is 10 nM.

What about the Kd [6] of the same molecule?
The Kd was 10 nM.

What about the Kd [7] of the same molecule?
The Kd was 8 nM.

What about the Kd [8] of the same molecule?
The Kd was 10 nM.

What about the Kd [9] of the same molecule?
Its Kd is 20 nM.

What about the Kd [10] of the same molecule?
Its Kd is 4 nM.

And the Kd [11]?
The Kd was 4 nM.

And the Kd [12]?
The Kd was 7 nM.

What about the Kd [13] of the same molecule?
The Kd was 4 nM.

B1: primed DNA (27mer/49mer) (dsDNA)
DNA 1: AGCTATGACCATGATTACGAATTGCTT
DNA 2: AGCTACCATGCCTGCACGAATTAAGCAATTCGTAATCATGGTCATAGCT
B1 was tested. Which Kd [14] did it give?
The Kd was 6 nM.

What about the Kd [15] of the same molecule?
Its Kd is 6 nM.

What about the Kd [16] of the same molecule?
The Kd was 6 nM.

What about the Kd [17] of the same molecule?
The Kd was 9 nM.

What about the Kd [18] of the same molecule?
Its Kd is 400 nM.

What about the Kd [19] of the same molecule?
Its Kd is 10 nM.

And the Kd [20]?
The Kd was 8 nM.

And the Kd [21]?
The Kd was 8 nM.

What about the Kd [22] of the same molecule?
Its Kd is 6 nM.

What about the Kd [23] of the same molecule?
Its Kd is 9 nM.

What about the Kd [24] of the same molecule?
The Kd was 10 nM.

And the Kd [25]?
Its Kd is 10 nM.

What about the Kd [26] of the same molecule?
The Kd was 10 nM.

What about the Kd [27] of the same molecule?
Its Kd is 8 nM.

What about the Kd [28] of the same molecule?
The Kd was 6 nM.
